Data on three molecules can be found in article PMC8184850, “Cryo-EM structure of TFIIH/Rad4–Rad23–Rad33 in damaged DNA opening in nucleotide excision repair” (Nature Communications, 2021).

Settings in all cases: both partners purified
One assay deals with T1, Tfb2 (yeast, UniProt Q02939 1-513).
T1 construct: Tfb2 (p52 homologue), subunit of yeast coreTFIIH; Tfb2C 412–513 as printed; Stood in the assays as part of coreTFIIH; also called yeast homologue of p52; source: purified from yeast as a subunit of coreTFIIH
T1 sequence (looked up): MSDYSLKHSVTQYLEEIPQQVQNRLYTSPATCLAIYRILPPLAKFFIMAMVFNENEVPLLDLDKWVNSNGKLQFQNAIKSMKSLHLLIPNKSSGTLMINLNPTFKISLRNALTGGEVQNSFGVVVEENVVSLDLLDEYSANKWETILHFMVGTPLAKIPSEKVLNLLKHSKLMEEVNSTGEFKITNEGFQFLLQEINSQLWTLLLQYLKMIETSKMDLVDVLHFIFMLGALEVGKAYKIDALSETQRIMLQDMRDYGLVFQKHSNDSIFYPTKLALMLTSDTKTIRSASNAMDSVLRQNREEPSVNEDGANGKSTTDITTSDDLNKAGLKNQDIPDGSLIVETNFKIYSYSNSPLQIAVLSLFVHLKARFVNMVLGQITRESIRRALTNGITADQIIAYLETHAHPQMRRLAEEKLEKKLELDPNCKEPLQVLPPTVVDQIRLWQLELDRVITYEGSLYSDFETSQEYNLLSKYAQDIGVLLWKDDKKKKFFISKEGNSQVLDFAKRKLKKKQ
Description: cryo-EM structure; coreTFIIH and Rad4–Rad23–Rad33 on −24*/+24 AAF-DNA with ATP, glycerol gradient with glutaraldehyde; Map 1 3.86 Å (TFIIH), Map 2 9.2 Å, Map 3 7.9 Å; Rad4, Rad33 and the Tfb1 PH domain placed by rigid-body docking of known structures or homology models.

The next assay deals with T2, Ssl2 (Saccharomyces cerevisiae, UniProt Q00578 1-843).
T2 construct: Ssl2 (XPB homologue), subunit of yeast coreTFIIH; C-Ssl2 549–776, C-terminal region 771–843 as printed; Stood in the assays as part of coreTFIIH; also called yeast homologue of XPB; source: purified from yeast as a subunit of coreTFIIH
T2 sequence (looked up): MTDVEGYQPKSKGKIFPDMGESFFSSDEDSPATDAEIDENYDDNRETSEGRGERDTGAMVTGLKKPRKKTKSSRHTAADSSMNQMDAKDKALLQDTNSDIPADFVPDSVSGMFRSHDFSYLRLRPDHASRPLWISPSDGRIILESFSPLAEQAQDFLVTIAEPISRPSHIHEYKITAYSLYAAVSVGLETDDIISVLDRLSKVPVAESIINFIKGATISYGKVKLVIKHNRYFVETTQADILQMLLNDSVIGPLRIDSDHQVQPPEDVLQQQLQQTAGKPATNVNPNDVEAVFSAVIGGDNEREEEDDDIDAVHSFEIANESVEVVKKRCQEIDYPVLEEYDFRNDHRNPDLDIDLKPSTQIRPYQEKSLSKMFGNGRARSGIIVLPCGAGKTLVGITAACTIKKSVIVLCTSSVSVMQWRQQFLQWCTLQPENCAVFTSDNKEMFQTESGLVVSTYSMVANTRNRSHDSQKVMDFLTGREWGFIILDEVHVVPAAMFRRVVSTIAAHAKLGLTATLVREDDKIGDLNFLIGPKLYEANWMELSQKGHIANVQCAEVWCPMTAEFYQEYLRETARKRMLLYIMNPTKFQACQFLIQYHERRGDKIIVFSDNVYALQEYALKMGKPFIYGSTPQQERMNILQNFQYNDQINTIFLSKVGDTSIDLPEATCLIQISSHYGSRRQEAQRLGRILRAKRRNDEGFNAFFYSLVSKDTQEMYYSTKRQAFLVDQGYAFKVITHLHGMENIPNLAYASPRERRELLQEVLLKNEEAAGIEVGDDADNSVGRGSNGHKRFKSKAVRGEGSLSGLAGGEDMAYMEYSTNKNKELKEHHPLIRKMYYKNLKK
The assay is described as above.

The target of a further assay is T3, Rad4 (yeast, UniProt P14736 1-754).
T3 construct: Rad4 (XPC homologue), yeast; Stood in the assays as part of Rad4–Rad23–Rad33; written alone for the contacts of the subunit; also called yeast homologue of XPC; source: Hi5 insect cells, co-expressed with Rad23, purified as the Rad4–Rad23 complex
T3 sequence (looked up): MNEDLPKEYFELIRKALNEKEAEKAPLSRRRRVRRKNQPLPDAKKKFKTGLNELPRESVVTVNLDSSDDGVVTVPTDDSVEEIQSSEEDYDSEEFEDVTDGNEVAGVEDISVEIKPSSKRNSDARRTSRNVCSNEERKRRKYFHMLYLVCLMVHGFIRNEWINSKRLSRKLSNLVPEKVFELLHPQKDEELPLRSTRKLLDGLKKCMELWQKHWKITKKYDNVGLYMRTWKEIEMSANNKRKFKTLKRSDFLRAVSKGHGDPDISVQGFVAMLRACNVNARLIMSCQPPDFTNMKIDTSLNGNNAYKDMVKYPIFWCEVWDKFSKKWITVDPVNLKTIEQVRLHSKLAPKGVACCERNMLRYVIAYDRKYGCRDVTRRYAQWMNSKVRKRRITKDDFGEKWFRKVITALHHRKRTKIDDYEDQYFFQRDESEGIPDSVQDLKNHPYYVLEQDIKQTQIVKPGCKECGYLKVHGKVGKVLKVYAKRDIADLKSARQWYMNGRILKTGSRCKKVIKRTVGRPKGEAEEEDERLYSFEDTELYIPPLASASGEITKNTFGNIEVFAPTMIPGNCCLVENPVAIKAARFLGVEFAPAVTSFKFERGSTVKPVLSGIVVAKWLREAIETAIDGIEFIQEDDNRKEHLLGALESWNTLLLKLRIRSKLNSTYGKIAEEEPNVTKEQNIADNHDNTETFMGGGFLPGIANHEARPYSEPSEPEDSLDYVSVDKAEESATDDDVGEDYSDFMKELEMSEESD
The description is as above.

The target in assay [1] is T4, Full-length Rad4–Rad23 complex (yeast, UniProt P14736 1-754; P32628 1-398).
T4 construct: Rad4 (XPC homologue), yeast; Rad23 (RAD23B homologue), yeast; also called Rad4–23; yeast homologue of XPC–RAD23B
T4 sequence (looked up) 1: T3 sequence (looked up)
T4 sequence (looked up) 2: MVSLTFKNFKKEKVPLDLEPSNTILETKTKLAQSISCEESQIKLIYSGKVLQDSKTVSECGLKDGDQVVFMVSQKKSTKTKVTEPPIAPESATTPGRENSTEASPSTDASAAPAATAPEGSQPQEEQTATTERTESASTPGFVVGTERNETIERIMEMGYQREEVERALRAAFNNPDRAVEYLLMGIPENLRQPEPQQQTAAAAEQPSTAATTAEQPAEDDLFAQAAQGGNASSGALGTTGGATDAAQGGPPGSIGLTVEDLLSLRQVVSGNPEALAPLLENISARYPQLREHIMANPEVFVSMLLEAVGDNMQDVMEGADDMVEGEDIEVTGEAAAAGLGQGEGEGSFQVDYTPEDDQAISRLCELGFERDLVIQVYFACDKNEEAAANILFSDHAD
Description: co-sedimentation; 10–40% glycerol gradient (20 mM HEPES, 150 mM potassium acetate, 2 mM magnesium acetate, 4 mM DTT, 2 mM ATP or AMP-PNP), 52,000 rpm 6 h 35 min, 4 °C; Rad4–Rad23–Rad33 pre-assembled on −24*/+24 AAF-DNA, then added to TFIIH; fractions by SDS-PAGE.

In a further assay the target is T5, Rad4–Rad23–Rad33 complex (yeast, UniProt P14736 1-754; P32628 1-398; Q04231 1-177).
T5 construct: Rad4 (XPC homologue), yeast; Rad23 (RAD23B homologue), yeast; Rad33 (CETN2 homologue), yeast; plasmid pETDuet-RAD33; also called Rad4–23–33; yeast homologue of XPC–RAD23B–CETN2; copies: + +
T5 sequence 1: T3 sequence (looked up)
T5 sequence 2: T4 sequence (looked up) 2
T5 sequence 3: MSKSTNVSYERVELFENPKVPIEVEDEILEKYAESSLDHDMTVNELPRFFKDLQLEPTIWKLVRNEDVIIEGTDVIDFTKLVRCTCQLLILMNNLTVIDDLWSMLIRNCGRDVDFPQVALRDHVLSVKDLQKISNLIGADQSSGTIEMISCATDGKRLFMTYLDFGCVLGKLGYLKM
As to the kind of experiment: cross-linking; XL-MS: TFIIH/Rad4–Rad23–Rad33 assembled on −24/+24 AAF-DNA, 1 mg/mL in 20 mM HEPES pH 7.6, 300 mM potassium acetate, 5% glycerol, 5 mM DTT; 6 mM DSBU on ice 2 h; MeroX, FDR <1%.

The next assay addresses T6, Rad3 (yeast, UniProt P06839 1-778).
T6 construct: Rad3 (XPD homologue), subunit of yeast coreTFIIH; Stood in the assays as part of coreTFIIH; also called yeast homologue of XPD; source: purified from yeast as a subunit of coreTFIIH
T6 sequence (looked up): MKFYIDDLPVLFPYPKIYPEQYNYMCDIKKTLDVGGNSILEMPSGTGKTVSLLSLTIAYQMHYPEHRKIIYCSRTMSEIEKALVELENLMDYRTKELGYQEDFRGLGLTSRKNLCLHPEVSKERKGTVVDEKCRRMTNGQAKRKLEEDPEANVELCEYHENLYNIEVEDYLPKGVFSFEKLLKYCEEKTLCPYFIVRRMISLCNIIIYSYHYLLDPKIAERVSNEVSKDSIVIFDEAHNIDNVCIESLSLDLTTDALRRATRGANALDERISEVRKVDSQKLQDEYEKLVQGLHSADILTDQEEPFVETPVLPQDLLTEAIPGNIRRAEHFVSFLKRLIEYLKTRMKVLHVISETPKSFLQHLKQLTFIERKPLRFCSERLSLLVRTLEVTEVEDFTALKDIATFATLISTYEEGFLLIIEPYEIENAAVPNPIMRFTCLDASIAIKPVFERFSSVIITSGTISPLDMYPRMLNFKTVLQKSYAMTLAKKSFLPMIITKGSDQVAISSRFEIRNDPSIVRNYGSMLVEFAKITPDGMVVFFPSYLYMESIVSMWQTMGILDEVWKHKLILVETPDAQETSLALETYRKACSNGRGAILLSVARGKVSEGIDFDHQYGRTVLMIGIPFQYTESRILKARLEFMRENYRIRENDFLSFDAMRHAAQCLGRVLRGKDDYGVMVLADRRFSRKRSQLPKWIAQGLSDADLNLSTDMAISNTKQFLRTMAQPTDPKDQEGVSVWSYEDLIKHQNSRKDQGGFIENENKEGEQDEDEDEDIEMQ
As to the kind of experiment: cryo-EM structure; coreTFIIH and Rad4–Rad23–Rad33 on −24*/+24 AAF-DNA with ATP, glycerol gradient with glutaraldehyde; Map 1 3.86 Å (TFIIH), Map 2 9.2 Å, Map 3 7.9 Å; Rad4, Rad33 and the Tfb1 PH domain placed by rigid-body docking of known structures or homology models.

B1: Tfb5 (natural protein, yeast, UniProt Q3E7C1 1-72, looked up)
chain: MARARKGALVQCDPSIKALILQIDAKMSDIVLEELDDTHLLVNPSKVEFVKHELNRLLSKNIYNPMDEEENQ
notes: Tfb5 (p8 homologue), subunit of yeast coreTFIIH; Stood in the assays as part of coreTFIIH; also called yeast homologue of p8; source: purified from yeast as a subunit of coreTFIIH
Take B1: the binding result in the assay with Tfb2 is given as “binds”.

B2: Rad33 (natural protein, yeast)
chain: T5 sequence 3
notes: Rad33 (CETN2 homologue), yeast; plasmid pETDuet-RAD33; also called yeast homologue of CETN2; source: E. coli Rosetta(DE3), purified (HisTrap, Q column)
With B2, the binding result (with Ssl2; in the assay with Rad4; in assay [1]) was “binds” throughout.

B3: Tfb1 (natural protein, yeast, UniProt P32776 1-642, looked up)
chain: MSHSGAAIFEKVSGIIAINEDVSPAELTWRSTDGDKVHTVVLSTIDKLQATPASSEKMMLRLIGKVDESKKRKDNEGNEVVPKPQRHMFSFNNRTVMDNIKMTLQQIISRYKDADIYEEKRRREESAQHTETPMSSSSVTAGTPTPHLDTPQLNNGAPLINTAKLDDSLSKEKLLTNLKLQQSLLKGNKVLMKVFQETVINAGLPPSEFWSTRIPLLRAFALSTSQKVGPYNVLSTIKPVASSENKVNVNLSREKILNIFENYPIVKKAYTDNVPKNFKEPEFWARFFSSKLFRKLRGEKIMQNDRGDVIIDRYLTLDQEFDRKDDDMLLHPVKKIIDLDGNIQDDPVVRGNRPDFTMQPGVDINGNSDGTVDILKGMNRLSEKMIMALKNEYSRTNLQNKSNITNDEEDEDNDERNELKIDDLNESYKTNYAIIHLKRNAHEKTTDNDAKSSADSIKNADLKVSNQQMLQQLSLVMDNLINKLDLNQVVPNNEVSNKINKRVITAIKINAKQAKHNNVNSALGSFVDNTSQANELEVKSTLPIDLLESCRMLHTTCCEFLKHFYIHFQSGEQKQASTVKKLYNHLKDCIEKLNELFQDVLNGDGESMSNTCTAYLKPVLNSITLATHKYDEYFNEYNNNSN
notes: Tfb1 (p62 homologue), subunit of yeast coreTFIIH; Stood in the assays as part of coreTFIIH; also called yeast homologue of p62; source: purified from yeast as a subunit of coreTFIIH
In the case of B3, the binding result in the assay with Rad4–Rad23–Rad33 complex, in the assay with Rad4 and with Rad3 was “binds” each time.
